The values that follow come from publication PMC11880322.

To fix the notation:
B1: ss-W12 (ssDNA)
DNA: TCTGATTCGGGGTCATCCGAGTCGAGAGAGCGCAAA
B2: ss-W11 (ssDNA)
DNA: TCTGATTCGGGGTCATCCGAGTCGAGAGAGAAACTG
B3: ss-W10 (ssDNA)
DNA: TCTGATTCGGGGTCATCCGAGTCGAGAAAACGCCTG
B4: ss-W2 (ssDNA)
DNA: B3 DNA with G4A, T6A, A28G, A30G
B5: ss-W1 (ssDNA)
DNA: AAAGATTCGGGGTCATCCGAGTCGAGAGAGCGCCTG
B6: ss-W9 (ssDNA)
DNA: B3 DNA with G26A, A28G, A30G

Residue numbers refer to the chain shown, from its start.

For the series, the target named is ∆14-PrfaH (IncX3 plasmid pHNYX644 …, UniProt A0A0C5EQ24 1-155). Kind of series: EMSA. In general terms: Mobility shift assays separate free from complexed probe on a gel.
Consider B1, for which the binding result was “binds”.

For B2, the binding result was “binds”.

On to B3, for which the binding result was “binds”.

For the molecule B4, the binding result was “binds”.

For the molecule B5, the binding result is on record as “binds”.

Turning to B6, the binding result is listed as “binds”.
